Measured values published in patent publication US20180051079A1 (MacroGenics, published 2018).

T1: CD32B (UniProt P31994 43-217, limits assumed)
T1 construct: Only the name is printed; also called FcγRIIB
T1 sequence (looked up): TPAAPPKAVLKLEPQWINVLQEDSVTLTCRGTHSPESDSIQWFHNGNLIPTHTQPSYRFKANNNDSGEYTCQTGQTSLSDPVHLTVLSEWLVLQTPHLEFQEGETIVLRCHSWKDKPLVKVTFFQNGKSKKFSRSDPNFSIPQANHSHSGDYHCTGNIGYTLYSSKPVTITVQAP

B1: Fc variant D270E G316D P396L R416G (other, UniProt P01857-1 104-330, looked up)
chain: DKTHTCPPCPAPELLGGPSVFLFPPKPKDTLMISRTPEVTCVVVDVSHEEPEVKFNWYVDGVEVHNAKTKPREEQYNSTYRVVSVLTVLHQDWLNDKEYKCKVSNKALPAPIEKTISKAKGQPREPQVYTLPPSRDELTKNQVSLTCLVKGFYPSDIAVEWESNGQPENNYKTTPLVLDSDGSFFLYSKLTVDKSGWQQGNVFSCSVMHEALHNHYTQKSLSLSPGK
notes: domain: Fc; also called D270E P396L G316D R416G
B2: Fc variant R292P V305I P396L (other, UniProt P01857-1 104-330, looked up)
chain: DKTHTCPPCPAPELLGGPSVFLFPPKPKDTLMISRTPEVTCVVVDVSHEDPEVKFNWYVDGVEVHNAKTKPPEEQYNSTYRVVSILTVLHQDWLNGKEYKCKVSNKALPAPIEKTISKAKGQPREPQVYTLPPSRDELTKNQVSLTCLVKGFYPSDIAVEWESNGQPENNYKTTPLVLDSDGSFFLYSKLTVDKSRWQQGNVFSCSVMHEALHNHYTQKSLSLSPGK
notes: domain: Fc; also called Mutant 15

Tests used:
[1] = molecular target: T1, CD32B; test: assay not named in Table 4
[2] = molecular target: T1, CD32B; test: assay not named in Table 4; cell stands under CD16A F158 but fits CD32B (0.94/1.07 = 0.88)
[3] = molecular target: T2, CD16A V158 (UniProt P08637 17-208, limits assumed); test: assay not named in Table 4
T2 construct: Only the name and allotype are printed; also called FcγRIIIA

[4] = molecular target: T3, CD16A F158 (UniProt P08637 17-208, limits assumed); test: assay not named in Table 4
T3 construct: Only the name and allotype are printed; also called FcγRIIIA
T3 sequence (P08637 17-208 limits assumed): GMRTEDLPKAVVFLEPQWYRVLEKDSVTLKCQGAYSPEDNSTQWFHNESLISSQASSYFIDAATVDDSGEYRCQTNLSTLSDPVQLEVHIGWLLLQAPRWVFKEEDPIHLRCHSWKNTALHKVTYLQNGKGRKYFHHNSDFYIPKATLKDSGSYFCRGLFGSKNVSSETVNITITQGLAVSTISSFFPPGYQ

T2 sequence (P08637 17-208 F176V limits assumed): as the sequence (P08637 17-208 limits assumed) above, with F160V counted along it

| binding relative to wild-type Fc [1] | binding relative to wild-type Fc [2] | binding relative to wild-type Fc [3] | binding relative to wild-type Fc [4] | Binder |
| --- | --- | --- | --- | --- |
| 1.07 | 1.07 | – | – | B1 |
| 0.92 | – | 1.85 | 1.9 | B2 |
